Test results taken from US20260021119A1, “TETRACYCLINE DERIVATIVES” (ICM (INSTITUT DU CERVEAU ET DE LA MOELLE ÉPINIÈRE), priority 2022, published 2026).

Tested on: p-tau (phosphorylated tau protein at Ser202, Thr205 residues)
Assay: p-tau (AT8) expression in cultured cortical neurons under oxidative stress
Format: cell-based, mouse
Design: key to Reduction of the % of p-tau+ somas: a favorable response, synonymous with a decrease in the number of p-tau+ cell bodies; ++: a favorable response, synonymous with a decrease in the number of p-tau+ cell bodies; +++=reference level; an unfavorable response is represented by a sign “−”, synonymous with an elevation of the number of p-tau+ cell bodies
Conditions: compounds 3 μM, APO 100 μg/mL; mouse cortical cultures exposed div 7-11 to DF12i
Protocol: A culture model of cortical neurons from mouse embryonic brain was used, in which neuronal cells were subjected to a maturation step until day in vitro (div) 7, before being gradually exposed to phenol red formulated DMEM/Nutrient mixture F12 Ham supplemented with 20 μg/mL of insulin, and 2 μM of the NMDA receptor blocker MK-801 (DF12i).
Precisely, after 4 days of exposure to DF12i, between 10-15% of surviving neurons show a very strong AT8 immunosignal in their somas while only 1 to 1.5% of neuronal cell bodies are found immunopositive under conditions where oxidative stress is repressed by treatment with bovine apotransferrin (APO; 100 µg/mL, Sigma Aldrich), a glycoprotein with iron chelating properties. Likewise, overexpression of p-tau in cortical cell bodies is reduced by the two non-antibiotic tetracyclines compound of formula (C) ([…]) and compound of formula (Ib) ([…]): see the following Table: […]

B1: apotransferrin (protein, UniProt Q29443 20-704, looked up)
Serotransferrin: DPERTVRWCTISTHEANKCASFRENVLRILESGPFVSCVKKTSHMDCIKAISNNEADAVTLDGGLVYEAGLKPNNLKPVVAEFHGTKDNPQTHYYAVAVVKKDTDFKLNELRGKKSCHTGLGRSAGWNIPMAKLYKELPDPQESIQRAAANFFSASCVPCADQSSFPKLCQLCAGKGTDKCACSNHEPYFGYSGAFKCLMEGAGDVAFVKHSTVFDNLPNPEDRKNYELLCGDNTRKSVDDYQECYLAMVPSHAVVARTVGGKEDVIWELLNHAQEHFGKDKPDNFQLFQSPHGKDLLFKDSADGFLKIPSKMDFELYLGYEYVTALQNLRESKPPDSSKDECMVKWCAIGHQERTKCDRWSGFSGGAIECETAENTEECIAKIMKGEADAMSLDGGYLYIAGKCGLVPVLAENYKTEGESCKNTPEKGYLAVAVVKTSDANINWNNLKDKKSCHTAVDRTAGWNIPMGLLYSKINNCKFDEFFSAGCAPGSPRNSSLCALCIGSEKGTGKECVPNSNERYYGYTGAFRCLVEKGDVAFVKDQTVIQNTDGNNNEAWAKNLKKENFEVLCKDGTRKPVTDAENCHLARGPNHAVVSRKDKATCVEKILNKQQDDFGKSVTDCTSNFCLFQSNSKDLLFRDDTKCLASIAKKTYDSYLGDDYVRAMTNLRQCSTSKLLEACTFHKP
modifications: iron-free apo form
- Reduction of the % of p-tau+ somas: +++
